Here are results for 13 molecules from patent EP4696329A1 (BioRay Pharmaceutical Co., Ltd., dated 2024).

Residue numbers refer to the chain shown, from its start. In names and notes the source's numbering stands.

In test [1] the target is T1, human ROR1 expressed on cells (MDA-MB-231, Jeko-1, PA-1, HCC1187) (human, UniProt Q01973 30-937). In words: cell-based or functional assay.
Test [2] concerns the target human ROR2 protein (hROR2, Kactus Biosystems, Cat. No. ROR-HM402) (human, UniProt Q01974 34-403, limits assumed). The experiment in a line: ELISA, plate coated with hROR2.
Test [3] addresses T1, human ROR1 expressed on cells …. In words: flow cytometry on MDA-MB-231 cells.
In test [4] the target is T2, human ROR1 protein (recombinant ROR1 antigen, Kactus Biosystems) (human, UniProt Q01973 30-406, limits assumed). The experiment in a line: binding to ROR1 (column 'Binding to ROR1'; method not described).
T2 sequence (Q01973 30-406 limits assumed): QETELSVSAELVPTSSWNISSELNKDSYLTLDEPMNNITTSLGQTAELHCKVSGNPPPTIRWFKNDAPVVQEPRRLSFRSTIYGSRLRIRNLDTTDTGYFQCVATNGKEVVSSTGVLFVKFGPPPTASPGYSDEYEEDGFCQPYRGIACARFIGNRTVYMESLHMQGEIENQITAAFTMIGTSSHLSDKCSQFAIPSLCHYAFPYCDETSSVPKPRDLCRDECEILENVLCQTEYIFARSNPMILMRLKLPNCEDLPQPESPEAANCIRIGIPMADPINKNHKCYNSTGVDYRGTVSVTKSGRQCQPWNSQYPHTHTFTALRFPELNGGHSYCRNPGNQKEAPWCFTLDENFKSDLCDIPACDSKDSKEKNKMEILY
Test [5] has as its target T2, human ROR1 protein (recombinant ROR1 …). The experiment in a line: BLI (Octet R8), antibody captured on AHC sensor, ROR1 antigen as analyte.
Test [6] deals with T1, human ROR1 expressed on cells …. In words: flow cytometry on PA-1 cells.
Test [7] shares this target. In words: flow cytometry on Jeko-1 cells.

Chain of human ROR2 protein (hROR2, Kactus Biosystems, Cat. No. ROR-HM402) (Q01974 34-403 limits assumed): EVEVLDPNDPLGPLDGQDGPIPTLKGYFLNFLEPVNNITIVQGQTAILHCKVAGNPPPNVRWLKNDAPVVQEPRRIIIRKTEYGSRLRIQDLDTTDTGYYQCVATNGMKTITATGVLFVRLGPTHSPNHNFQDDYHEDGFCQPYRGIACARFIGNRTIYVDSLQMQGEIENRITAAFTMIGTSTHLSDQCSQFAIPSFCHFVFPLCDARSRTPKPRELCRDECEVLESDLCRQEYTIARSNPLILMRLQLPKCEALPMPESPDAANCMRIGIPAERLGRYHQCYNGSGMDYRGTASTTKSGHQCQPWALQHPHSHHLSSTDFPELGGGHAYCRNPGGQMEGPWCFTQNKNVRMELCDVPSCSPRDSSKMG
T1 sequence (Q01973 30-937 limits assumed): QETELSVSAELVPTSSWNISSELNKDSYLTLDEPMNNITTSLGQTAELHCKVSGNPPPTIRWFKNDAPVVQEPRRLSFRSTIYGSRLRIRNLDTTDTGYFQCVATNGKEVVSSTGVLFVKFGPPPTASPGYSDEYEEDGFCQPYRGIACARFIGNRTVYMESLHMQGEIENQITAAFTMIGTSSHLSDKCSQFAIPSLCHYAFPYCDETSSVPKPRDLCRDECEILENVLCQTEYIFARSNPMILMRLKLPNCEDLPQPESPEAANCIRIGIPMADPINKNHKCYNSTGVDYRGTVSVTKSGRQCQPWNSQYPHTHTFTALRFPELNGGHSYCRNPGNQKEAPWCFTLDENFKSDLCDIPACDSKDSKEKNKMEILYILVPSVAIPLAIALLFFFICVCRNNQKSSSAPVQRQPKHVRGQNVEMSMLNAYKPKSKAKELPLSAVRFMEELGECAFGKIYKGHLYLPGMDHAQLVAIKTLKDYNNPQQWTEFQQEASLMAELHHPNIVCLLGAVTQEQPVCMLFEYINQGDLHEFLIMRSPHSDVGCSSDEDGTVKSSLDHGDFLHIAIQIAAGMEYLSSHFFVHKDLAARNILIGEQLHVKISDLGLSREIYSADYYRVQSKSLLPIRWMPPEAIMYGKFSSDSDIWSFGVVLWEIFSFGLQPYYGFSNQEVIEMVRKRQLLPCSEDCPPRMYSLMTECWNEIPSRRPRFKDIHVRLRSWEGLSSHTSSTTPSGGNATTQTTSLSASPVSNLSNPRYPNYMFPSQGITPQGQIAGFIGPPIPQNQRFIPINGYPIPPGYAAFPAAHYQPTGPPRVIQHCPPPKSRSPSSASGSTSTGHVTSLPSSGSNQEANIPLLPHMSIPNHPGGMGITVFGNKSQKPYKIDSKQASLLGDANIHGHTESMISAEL

B1: ADC-5 (AM3-ZH3 conjugated to LD-1) (antibody, human IgG1, kappa, V domains shown)
VH: EVQLVESGGGLVQPGGSLRLSCAASGFTFSSYPMSWVRQAPGKGLEWVSSISTGASAYFPDSVKGRFTISRDNAKNSLYLQMNSLRAEDTAVYYCARITTSTWYMDVWGQGTTVTVSS
VL: DIQMTQSPSAMSASVGDRVTITCKASQDIYSYLSWFQQKPGKVPKTLIYRANRLVRGVPSRFSGSGSGQEYTLTISSLQPEDMATYYCLQYDEFPYTFGQGTKLEIKR
modifications: linker-drug LD-1 (MMAE) on cysteine sulfhydryls of reduced disulfides; average DAR between 3.7 and 4.3
Regarding B1, in test [1], the “inhibitory IC50 against the proliferation of HCC1187 cells (CellTiterGlo2)” value turned out to be 6.3 nM, the “inhibitory IC50 against the proliferation of Jeko1 cells (CellTiterGlo2)” value (“inhibitory IC50 … of Jeko1 cells (CellTiterGlo2)” below) came to 65.1 nM and the “inhibitory IC50 against the proliferation of PA-1 cells (CellTiterGlo2)” value (“inhibitory IC50 … of PA-1 cells (CellTiterGlo2)” for short) amounted to 17.8 nM.

B2: ADC-2 (AM3-ZH3 conjugated to LD-14) (antibody, human IgG1, kappa, V domains shown)
VH: B1 VH
VL: B1 VL
modifications: linker-drug LD-14 (eribulin) on cysteine sulfhydryls of reduced disulfides; average DAR between 3.7 and 4.3
On to B2, for which, in test [1], the “inhibitory IC50 against the proliferation of HCC1187 cells (CellTiterGlo2)” value was determined as 0.09 nM, the “inhibitory IC50 … of Jeko1 cells (CellTiterGlo2)” value came out at 0.285 nM and the “inhibitory IC50 … of PA-1 cells (CellTiterGlo2)” value was determined as 0.017 nM.

B3: AM3-ZH7 (antibody, human IgG1, kappa, V domains shown)
VH: B1 VH with P33A
VL: B1 VL
In the case of B3, the binding result in test [2] is “no binding (tested: starting from 333.33 nM)”. The EC50 in test [3] was determined as 0.0101 µg/mL; in test [4] it was 0.0115 µg/mL. Moreover, the Kd in test [5] was found to be 8.5 nM.

B4: AM3-ZH5 (antibody, human IgG1, kappa, V domains shown)
VH: B1 VH with P33A
VL: B1 VL with Y30F, R56S
With B4, in test [2], the binding result is given as “no binding (tested: starting from 333.33 nM)”. For the same molecule, the EC50 in test [3] was 0.0148 µg/mL; in test [4], 0.0124 µg/mL. In addition, the Kd in test [5] was 10 nM.

B5: AM3-ZH6 (antibody, human IgG1, kappa, V domains shown)
VH: B1 VH with P33A
VL: B1 VL with R56G
Turning to B5, in test [2], the binding result is on record as “no binding (tested: starting from 333.33 nM)”. Further, the EC50 in test [3] came to 0.013 µg/mL; in test [4], 0.012 µg/mL. The Kd in test [5] turned out to be 11 nM.

B6: AM3-ZH4 (antibody, human IgG1, kappa, V domains shown)
VH: B1 VH with P33A, I98Y, M105H
VL: B1 VL
As to B6, the binding result in test [2] is “no binding (tested: starting from 333.33 nM)”. Further, the results for the EC50 in test [3] and in test [4] were 0.0163 µg/mL and 0.0161 µg/mL, respectively. In test [5], the Kd is 27 nM.

B7: H10-hVH4-hVL4 (antibody, human IgG1, kappa, V domains shown)
VH: B1 VH with P33A, M105F
VL: B1 VL with Y30N, R56D
notes: also called H10-VH4VL4
B7: the binding result in test [2] is listed as “no binding (tested: starting from 333.33 nM)”. For the same molecule, the EC50 came out at 0.0304 µg/mL in test [3] and 0.0144 µg/mL in test [4]. Also, the Kd in test [5] is 47 nM.

B8: AM3-ZH1 (antibody, human IgG1, kappa, V domains shown)
VH: B1 VH with I98Y, M105F
VL: B1 VL
With B8, the binding result in test [2] is reported as “binds”. Besides, the EC50 in test [3] is 0.0169 µg/mL; in test [4] it was 0.0127 µg/mL. For the same molecule, in test [5], the Kd was determined as 7.9 nM.

B9: ADC-6 (UC961 conjugated to LD-14) (antibody, human IgG1, kappa, V domains shown)
VH: QVQLQESGPGLVKPSQTLSLTCTVSGYAFTAYNIHWVRQAPGQGLEWMGSFDPYDGGSSYNQKFKDRLTISKDTSKNQVVLTMTNMDPVDTATYYCARGWYYFDYWGHGTLVTVSS
VL: DIVMTQTPLSLPVTPGEPASISCRASKSISKYLAWYQQKPGQAPRLLIYSGSTLQSGIPPRFSGSGYGTDFTLTINNIESEDAAYYFCQQHDESPYTFGEGTKVEIKR
modifications: linker-drug LD-14 (eribulin) on cysteine sulfhydryls of reduced disulfides; drug loading 3.7-4.3 per antibody
B9: in test [1], the “inhibitory IC50 against the proliferation of HCC1187 cells (CellTiterGlo2)” value was found to be 0.24 nM, the “inhibitory IC50 … of Jeko1 cells (CellTiterGlo2)” value amounted to 2.08 nM and the “inhibitory IC50 … of PA-1 cells (CellTiterGlo2)” value worked out at 0.36 nM.

B10: ADC-7 (UC961 conjugated to LD-1) (antibody, human IgG1, kappa, V domains shown)
VH: B9 VH
VL: B9 VL
modifications: linker-drug LD-1 (MMAE) on cysteine sulfhydryls of reduced disulfides; drug loading 3.7-4.3 per antibody
For B10, in test [1], the “inhibitory IC50 against the proliferation of HCC1187 cells (CellTiterGlo2)” value stood at 15.4 nM, the “inhibitory IC50 … of Jeko1 cells (CellTiterGlo2)” value came out at 76.3 nM and the “inhibitory IC50 … of PA-1 cells (CellTiterGlo2)” value was determined as 15.1 nM.

B11: ADC-3 (KIH YR8/ZH3 conjugated to LD-14) (bispecific antibody, human IgG1, kappa)
heavy 1: not shown
light 1: EIVLTQSPATLSLSPGERATLSCSASSQVSYIHWYQQKPGQAPRPWIYETSKLASGIPARFSGSGSGTDYTLTISSLEPEDFAVYYCQQWNYPLITFGQGTKLEIKRTVAAPSVFIFPPSDEQLKSGTASVVCLLNNFYPREAKVQWKVDNALQSGNSQESVTEQDSKDSTYSLSSTLTLSKADYEKHKVYACEVTHQGLSSPVTKSFNRGEC
heavy 2: not shown
light 2: DIQMTQSPSAMSASVGDRVTITCKASQDIYSYLSWFQQKPGKVPKTLIYRANRLVRGVPSRFSGSGSGQEYTLTISSLQPEDMATYYCLQYDEFPYTFGQGTKLEIKRTVAAPSVFIFPPSDEQLKSGTASVVCLLNNFYPREAKVQWKVDNALQSGNSQESVTEQDSKDSTYSLSSTLTLSKADYEKHKVYACEVTHQGLSSPVTKSFNRGEC
modifications: linker-drug LD-14 (eribulin) on cysteine sulfhydryls of reduced disulfides; average DAR between 3.7 and 4.3
For the molecule B11, in test [1], the “inhibitory IC50 against the proliferation of HCC1187 cells (CellTiterGlo2)” value came to 0.014 nM, the “inhibitory IC50 … of Jeko1 cells (CellTiterGlo2)” value is 0.018 nM and the “inhibitory IC50 … of PA-1 cells (CellTiterGlo2)” value came to 0.032 nM.

B12: ADC-4 (KIH YR8/ZH3 conjugated to LD-1) (bispecific antibody, human IgG1, kappa)
heavy 1: not shown
light 1: B11 light 1
heavy 2: not shown
light 2: B11 light 2
modifications: linker-drug LD-1 (MMAE) on cysteine sulfhydryls of reduced disulfides; average DAR between 3.7 and 4.3
As for B12, in test [1], the “inhibitory IC50 against the proliferation of HCC1187 cells (CellTiterGlo2)” value amounted to 1.2 nM, the “inhibitory IC50 … of Jeko1 cells (CellTiterGlo2)” value is 46.6 nM and the “inhibitory IC50 … of PA-1 cells (CellTiterGlo2)” value was 4.2 nM.

B13: KIH YR8/ZH3, an ROR1-targeting biepitopic antibody (bispecific antibody, human IgG1, kappa)
heavy 1: not shown
light 1: B11 light 1
heavy 2: not shown
light 2: B11 light 2
notes: chain 1: YR-8-ES arm with Fc knob (T366W); chain 3: AM3-ZH3 arm with Fc hole (T366S, L368A, Y407V); made by reduction and mixing of YR-8-ES variant 1 and AM3-ZH3 variant 1
Regarding B13, the EC50 turned out to be 0.41 nM in test [6] and 0.19 nM in test [7]. Also, the MFI fold in test [6] worked out at 7 fold; in test [7] it was 8.2 fold.
